Measurements: publication PMC12392863, “Natural Design of a Stabilized Cross‐β Fold: Structure of the FuA FapC from Pseudomonas Sp. UK4 Reveals a Critical Role for Stacking of Imperfect Repeats” (Advanced Materials (Deerfield Beach, Fla.), 2025)

What was measured:
[1] = target: FapC from Pseudomonas fluorescens Pf5, wild type (P. fluorescens Pf5); assay: seeded ThT fibrillation kinetics, global fit with AmyloFit; 5 µM FapC UK4 monomer with 0-10% v/v sonicated fibril seeds of UK4, PAO1, Pf5 or F1 FapC; 40 µM ThT, 50 mM Tris/HCl pH 7.4, 37 °C, no shaking; constants of monomer addition to (k+) and release from (Koff) fibrils; time in hours
[2] = target: FapC from Pseudomonas putida F1, wild type (Pseudomonas putida F1); assay: as above
[3] = target: FapC from Pseudomonas aeruginosa PAO1, wild type (Pseudomonas aeruginosa PAO1); assay: as above
[4] = target: FapC from P. fluorescens Pf5, wild type (P. fluorescens Pf5) (UniProt P0DXF5); assay: formic acid dissolution of fibrils with SDS-PAGE; mature fibrils in 0-100% formic acid, 30 min, room temperature; centrifuged; released monomer in the supernatant on SDS-PAGE, normalised to 100% FA
[5] = target: FapC from Pseudomonas putida F1, wild type (Pseudomonas putida F1); assay: as above
[6] = target: the molecule itself; assay: ThT fluorescence fibrillation kinetics; self-assembly into amyloid without seeds; 15 µM FapC (wt or mutant; wt also 1-15 µM), 50 mM Tris/HCl pH 7.4, 40 µM ThT, 37 °C, no shaking, followed for 120 h

Molecule | binding result [6] | further results
FapC from Pseudomonas sp. UK4, wild type (from UniProt P0DXF5 25-250) (natural protein) | – | koff [1]: 9.11e-13 s⁻¹; koff [2]: 1.96e-15 s⁻¹; koff [3]: 3.94e-14 s⁻¹
FapC from P. fluorescens Pf5, wild type (from UniProt P0DXF5 25-250) (natural protein) | – | formic acid needed to dissolve half of the fibrils [4]: 70 % FA
FapC from Pseudomonas putida F1, wild type (natural protein) | – | formic acid needed to dissolve half of the fibrils [5]: 70 % FA
FapC UK4 Asn200Ala (natural protein, Pseudomonas sp. UK4, FapC, Pseudomonas sp; UK4, point mutant made on the FapC UK4 plasmid; Same construct as m1 but for the mutation; source: E. coli BL21 (DE3), purified (Ni-NTA in 7.5 M guanidine hydrochloride), desalted) GPAEKWKPTPAPTGTVAAAVTDTQVSKDNKFDDTKTLNNAGANGSLSNSKGNLGANIAAGSGNQQDNAAAITSSAGDAATVFAVADIYQESKDNKFTNKGTQNNALLNNSANNSSGNVGVNVAAGQGNQQKNNLAIVTADGKNVAAASNTEQVSLDNHFLNEASSKHSYKPQYVVANAGLLNSANNASGNIGVNVAAGAGNQQSNTLTLGSGCTVCAAGTGSKLAF | binds | –
FapC UK4 Gly84Ala (natural protein, Pseudomonas sp. UK4, FapC, Pseudomonas sp; UK4, point mutant made on the FapC UK4 plasmid; Same construct as m1 but for the mutation; also called G84A; source: E. coli BL21 (DE3), purified (Ni-NTA in 7.5 M guanidine hydrochloride), desalted) GPAEKWKPTPAPTGTVAAAVTDTQVSKDNKFDDTKTLNNAGANGSLSNSKGNLGANIAAASGNQQDNAAAITSSAGDAATVFAVADIYQESKDNKFTNKGTQNNALLNNSANNSSGNVGVNVAAGQGNQQKNNLAIVTADGKNVAAASNTEQVSLDNHFLNEASSKHSYKPQYVVNNAGLLNSANNASGNIGVNVAAGAGNQQSNTLTLGSGCTVCAAGTGSKLAF | binds | –
FapC UK4 Asp90Lys and Ser228Lys (natural protein, Pseudomonas sp. UK4, FapC, Pseudomonas sp; UK4, double charge mutant made on the FapC UK4 plasmid; Same construct as m1 but for the mutations; also called cluster of three positive charges (Lys90, Lys155, and Lys228); source: E. coli BL21 (DE3), purified (Ni-NTA in 7.5 M guanidine hydrochloride), desalted) GPAEKWKPTPAPTGTVAAAVTDTQVSKDNKFDDTKTLNNAGANGSLSNSKGNLGANIAAGSGNQQKNAAAITSSAGDAATVFAVADIYQESKDNKFTNKGTQNNALLNNSANNSSGNVGVNVAAGQGNQQKNNLAIVTADGKNVAAASNTEQVSLDNHFLNEASSKHSYKPQYVVNNAGLLNSANNASGNIGVNVAAGAGNQQKNTLTLGSGCTVCAAGTGSKLAF | binds | –
FapC UK4 Gln227Ala (natural protein, Pseudomonas sp. UK4, FapC, Pseudomonas sp; UK4, point mutant made on the FapC UK4 plasmid; Same construct as m1 but for the mutation; source: E. coli BL21 (DE3), purified (Ni-NTA in 7.5 M guanidine hydrochloride), desalted) GPAEKWKPTPAPTGTVAAAVTDTQVSKDNKFDDTKTLNNAGANGSLSNSKGNLGANIAAGSGNQQDNAAAITSSAGDAATVFAVADIYQESKDNKFTNKGTQNNALLNNSANNSSGNVGVNVAAGQGNQQKNNLAIVTADGKNVAAASNTEQVSLDNHFLNEASSKHSYKPQYVVNNAGLLNSANNASGNIGVNVAAGAGNQASNTLTLGSGCTVCAAGTGSKLAF | binds | –
FapC UK4 Asn87Ala (natural protein, Pseudomonas sp. UK4, FapC, Pseudomonas sp; UK4, point mutant made on the FapC UK4 plasmid; Same construct as m1 but for the mutation; also called Asn87 mutant; source: E. coli BL21 (DE3), purified (Ni-NTA in 7.5 M guanidine hydrochloride), desalted) GPAEKWKPTPAPTGTVAAAVTDTQVSKDNKFDDTKTLNNAGANGSLSNSKGNLGANIAAGSGAQQDNAAAITSSAGDAATVFAVADIYQESKDNKFTNKGTQNNALLNNSANNSSGNVGVNVAAGQGNQQKNNLAIVTADGKNVAAASNTEQVSLDNHFLNEASSKHSYKPQYVVNNAGLLNSANNASGNIGVNVAAGAGNQQSNTLTLGSGCTVCAAGTGSKLAF | binds | –
FapC UK4 N145A (natural protein, Pseudomonas sp. UK4, FapC, Pseudomonas sp; UK4, point mutant made on the FapC UK4 plasmid; Same construct as m1 but for the mutation; source: E. coli BL21 (DE3), purified (Ni-NTA in 7.5 M guanidine hydrochloride), desalted) GPAEKWKPTPAPTGTVAAAVTDTQVSKDNKFDDTKTLNNAGANGSLSNSKGNLGANIAAGSGNQQDNAAAITSSAGDAATVFAVADIYQESKDNKFTNKGTQNNALLNNSANNSSGNVGVAVAAGQGNQQKNNLAIVTADGKNVAAASNTEQVSLDNHFLNEASSKHSYKPQYVVNNAGLLNSANNASGNIGVNVAAGAGNQQSNTLTLGSGCTVCAAGTGSKLAF | binds | –
FapC UK4 Q89A (natural protein, Pseudomonas sp. UK4, FapC, Pseudomonas sp; UK4, point mutant made on the FapC UK4 plasmid; Same construct as m1 but for the mutation; also called Gln89 mutant; source: E. coli BL21 (DE3), purified (Ni-NTA in 7.5 M guanidine hydrochloride), desalted) GPAEKWKPTPAPTGTVAAAVTDTQVSKDNKFDDTKTLNNAGANGSLSNSKGNLGANIAAGSGNQADNAAAITSSAGDAATVFAVADIYQESKDNKFTNKGTQNNALLNNSANNSSGNVGVNVAAGQGNQQKNNLAIVTADGKNVAAASNTEQVSLDNHFLNEASSKHSYKPQYVVNNAGLLNSANNASGNIGVNVAAGAGNQQSNTLTLGSGCTVCAAGTGSKLAF | binds | –
FapC UK4 Lys155Asp and Ser228Asp (natural protein, Pseudomonas sp. UK4, FapC, Pseudomonas sp; UK4, double charge mutant made on the FapC UK4 plasmid; Same construct as m1 but for the mutations; also called cluster of four negative charges (Asp46, Asp90, Asp155, and Asp228); source: E. coli BL21 (DE3), purified (Ni-NTA in 7.5 M guanidine hydrochloride), desalted) GPAEKWKPTPAPTGTVAAAVTDTQVSKDNKFDDTKTLNNAGANGSLSNSKGNLGANIAAGSGNQQDNAAAITSSAGDAATVFAVADIYQESKDNKFTNKGTQNNALLNNSANNSSGNVGVNVAAGQGNQQDNNLAIVTADGKNVAAASNTEQVSLDNHFLNEASSKHSYKPQYVVNNAGLLNSANNASGNIGVNVAAGAGNQQDNTLTLGSGCTVCAAGTGSKLAF | binds | –
FapC UK4 Asn229Ala (natural protein, Pseudomonas sp. UK4, FapC, Pseudomonas sp; UK4, point mutant made on the FapC UK4 plasmid; Same construct as m1 but for the mutation; source: E. coli BL21 (DE3), purified (Ni-NTA in 7.5 M guanidine hydrochloride), desalted) GPAEKWKPTPAPTGTVAAAVTDTQVSKDNKFDDTKTLNNAGANGSLSNSKGNLGANIAAGSGNQQDNAAAITSSAGDAATVFAVADIYQESKDNKFTNKGTQNNALLNNSANNSSGNVGVNVAAGQGNQQKNNLAIVTADGKNVAAASNTEQVSLDNHFLNEASSKHSYKPQYVVNNAGLLNSANNASGNIGVNVAAGAGNQQSATLTLGSGCTVCAAGTGSKLAF | binds | –
FapC UK4 Gly75Ala (natural protein, Pseudomonas sp. UK4, FapC, Pseudomonas sp; UK4, point mutant made on the FapC UK4 plasmid; Same construct as m1 but for the mutation; source: E. coli BL21 (DE3), purified (Ni-NTA in 7.5 M guanidine hydrochloride), desalted) GPAEKWKPTPAPTGTVAAAVTDTQVSKDNKFDDTKTLNNAGANGSLSNSKANLGANIAAGSGNQQDNAAAITSSAGDAATVFAVADIYQESKDNKFTNKGTQNNALLNNSANNSSGNVGVNVAAGQGNQQKNNLAIVTADGKNVAAASNTEQVSLDNHFLNEASSKHSYKPQYVVNNAGLLNSANNASGNIGVNVAAGAGNQQSNTLTLGSGCTVCAAGTGSKLAF | binds | –
FapC UK4 Gly75Pro (natural protein, Pseudomonas sp. UK4, FapC, Pseudomonas sp; UK4, point mutant made on the FapC UK4 plasmid; Same construct as m1 but for the mutation; source: E. coli BL21 (DE3), purified (Ni-NTA in 7.5 M guanidine hydrochloride), desalted) GPAEKWKPTPAPTGTVAAAVTDTQVSKDNKFDDTKTLNNAGANGSLSNSKPNLGANIAAGSGNQQDNAAAITSSAGDAATVFAVADIYQESKDNKFTNKGTQNNALLNNSANNSSGNVGVNVAAGQGNQQKNNLAIVTADGKNVAAASNTEQVSLDNHFLNEASSKHSYKPQYVVNNAGLLNSANNASGNIGVNVAAGAGNQQSNTLTLGSGCTVCAAGTGSKLAF | binds | –
